Article PMC7924230, “Insights into the structure of mature streptavidin C1 from Streptomyces cinnamonensis reveal the self-binding of the extension C-terminal peptide to biotin-binding sites” (IUCrJ, 2021)

Assays:
[1] = target: streptavidin C2 from Streptomyces cinnamonensis strain KPP02129, recombinant (Streptomyces cinnamonensis); assay: SEC-MALS; Superdex 200 10/300 GL, 20 mM Tris-HCl pH 8.0, 100 mM NaCl, 2 mM DTT; 1-2 mg/ml, 0.25 ml injected, 0.8 ml/min
[2] = target: streptavidin C2 from Streptomyces cinnamonensis strain KPP02129, recombinant (Streptomyces cinnamonensis); assay: SDS-PAGE (oligomer bands); purified protein in 1x SDS sample buffer (1% SDS, with or without β-mercaptoethanol), incubated 20 min at 25-100°C, with or without biotin
[3] = target: streptavidin C1 from Streptomyces cinnamonensis strain KPP02129, recombinant mature form (Streptomyces cinnamonensis); assay: SEC-MALS; Superdex 200 10/300 GL, 20 mM Tris-HCl pH 8.0, 100 mM NaCl, 2 mM DTT; 1-2 mg/ml, 0.25 ml injected, 0.8 ml/min
[4] = target: streptavidin C1 from Streptomyces cinnamonensis strain KPP02129, recombinant mature form (Streptomyces cinnamonensis); assay: SDS-PAGE (oligomer bands); purified protein in 1x SDS sample buffer (1% SDS, with or without β-mercaptoethanol), incubated 20 min at 25-100°C, with or without biotin
streptavidin C1 = target: T1, streptavidin C1 (Streptomyces virginiae, UniProt A0ABQ3NKM7); assay: microscale thermophoresis (MST), His-tag-labelled protein; type: binding
T1 construct: ORF Met1-Glu191 in pET-21a, E. coli BL21; His-tagged (C1-His); mature N-terminus 34-SADPR-38; homotetramer about 76 kDa
T1 sequence (A0ABQ3NKM7 26-191 limits assumed): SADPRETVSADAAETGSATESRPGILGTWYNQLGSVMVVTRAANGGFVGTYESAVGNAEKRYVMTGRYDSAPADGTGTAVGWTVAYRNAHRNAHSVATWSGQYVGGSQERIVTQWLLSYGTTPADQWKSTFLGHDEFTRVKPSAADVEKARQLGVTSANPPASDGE

streptavidin C2 = target: T2, streptavidin C2 (Streptomyces virginiae, UniProt A0ABQ3NKS0); assay: as above; type: binding; conditions: read-out: apparent K d
T2 construct: gene Scinn_28310; cloned in pET-21a, E. coli BL21; His-tagged (C2-His); homotetramer about 68 kDa

avidin = target: T3, avidin (Gallus gallus, UniProt P02701); assay: thermal unfolding, intrinsic fluorescence […] nm (Tycho NT.[…]); type: binding; conditions: PBS-T, 1 mg/ml protein, 4 mg/ml D-biotin
T3 construct: gene AVD; homotetramer
T3 sequence (P02701 25-152): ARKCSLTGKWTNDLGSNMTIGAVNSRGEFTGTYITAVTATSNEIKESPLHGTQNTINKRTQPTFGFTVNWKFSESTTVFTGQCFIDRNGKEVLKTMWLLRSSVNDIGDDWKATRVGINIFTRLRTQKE

[5] = target: C-terminal deletion mutant ΔC1 of streptavidin C1 (amino acids 1-161) (Streptomyces cinnamonensis); assay: MST; Monolith NT.115; 200 nM His-tag-labelled (RED-tris-NTA) ΔC1-His or ΔC2-His, unlabelled peptide 2.4414-80 000 nM, PBS with 0.05% Tween 20, 10 min at room temperature, measured at 25°C, 40% LED power, 60% MST power, triplicate
[6] = target: C-terminal deletion mutant ΔC2 of streptavidin C1 (amino acids 1-158) (Streptomyces cinnamonensis); assay: as above

Question: How did the stoichiometry N [1] turn out when “streptavidin C2 from Streptomyces cinnamonensis strain KPP02129, recombinant (natural protein)” was run?
Answer: The stoichiometry N was 4.

Question: What about the stoichiometry N [2] of the same molecule?
Answer: Its stoichiometry N is 4.

Question: Which results are given for “streptavidin C1 from Streptomyces cinnamonensis strain KPP02129, recombinant mature form (natural protein)”?
Answer: stoichiometry N [3]: 4; stoichiometry N [4]: 4

Question: Which Kd (streptavidin C1) does the source give for `O=C(O)CCCC[C@@H]1SC[C@@H]2NC(=O)N[C@@H]21` [D-biotin] here?
Answer: Its Kd is ~0.00306 nM.

Question: And the Kd (streptavidin C2)?
Answer: Its Kd is 0.00306 ± 0.0008 nM.

Question: And the T i (avidin)?
Answer: Its T i is “streptavidin (green) and avidin (brown) with or without biotin from differential scanning fluorimetry”.

Question: How did the Kd [5] turn out when SAADVEKARQLGVTSANPPASDGE [C-Lid_ECP peptide of streptavidin C1] was run?
Answer: The Kd was 21000 nM.

Question: And the Kd [6]?
Answer: The Kd was 7300 nM.

Question: Which results are given for LGVTSANPPASDGE [ECP peptide (extension C-terminal peptide) of streptavidin C1]?
Answer: Kd [5]: 49 nM; Kd [6]: 110 nM
